From IntAct's records for PubMed 17399790

B1: Complement factor H (Homo sapiens), P08603-1 (parent)
chain: MRLLAKIICLMLWAICVAEDCNELPPRRNTEILTGSWSDQTYPEGTQAIYKCRPGYRSLGNVIMVCRKGEWVALNPLRKCQKRPCGHPGDTPFGTFTLTGGNVFEYGVKAVYTCNEGYQLLGEINYRECDTDGWTNDIPICEVVKCLPVTAPENGKIVSSAMEPDREYHFGQAVRFVCNSGYKIEGDEEMHCSDDGFWSKEKPKCVEISCKSPDVINGSPISQKIIYKENERFQYKCNMGYEYSERGDAVCTESGWRPLPSCEEKSCDNPYIPNGDYSPLRIKHRTGDEITYQCRNGFYPATRGNTAKCTSTGWIPAPRCTLKPCDYPDIKHGGLYHENMRRPYFPVAVGKYYSYYCDEHFETPSGSYWDHIHCTQDGWSPAVPCLRKCYFPYLENGYNQNYGRKFVQGKSIDVACHPGYALPKAQTTVTCMENGWSPTPRCIRVKTCSKSSIDIENGFISESQYTYALKEKAKYQCKLGYVTADGETSGSITCGKDGWSAQPTCIKSCDIPVFMNARTKNDFTWFKLNDTLDYECHDGYESNTGSTTGSIVCGYNGWSDLPICYERECELPKIDVHLVPDRKKDQYKVGEVLKFSCKPGFTIVGPNSVQCYHFGLSPDLPICKEQVQSCGPPPELLNGNVKEKTKEEYGHSEVVEYYCNPRFLMKGPNKIQCVDGEWTTLPVCIVEESTCGDIPELEHGWAQLSSPPYYYGDSVEFNCSESFTMIGHRSITCIHGVWTQLPQCVAIDKLKKCKSSNLIILEEHLKNKKEFDHNSNIRYRCRGKEGWIHTVCINGRWDPEVNCSMAQIQLCPPPPQIPNSHNMTTTLNYRDGEKVSVLCQENYLIQEGEEITCKDGRWQSIPLCVEKIPCSQPPQIEHGTINSSRSSQESYAHGTKLSYTCEGGFRISEENETTCYMGKWSSPPQCEGLPCKSPPEISHGVVAHMSDSYQYGEEVTYKCFEGFGIDGPAIAKCLGEKWSHPPSCIKTDCLSLPSFENAIPMGEKKDVYKAGEQVTYTCATYYKMDGASNVTCINSRWTGRPTCRDTSCVNPPTVQNAYIVSRQMSKYPSGERVRYQCRSPYEMFGDEEVMCLNGNWTEPPQCKDSTGKCGPPPPIDNGDITSFPLSVYAPASSVEYQCQNLYQLEGNKRITCRNGQWSEPPKCLHPCVISREIMENYNIALRWTAKQKLYSRTGESVEFVCKRGYRLSSRSHTLRTTCWDGKLEYPTCAKR
partner: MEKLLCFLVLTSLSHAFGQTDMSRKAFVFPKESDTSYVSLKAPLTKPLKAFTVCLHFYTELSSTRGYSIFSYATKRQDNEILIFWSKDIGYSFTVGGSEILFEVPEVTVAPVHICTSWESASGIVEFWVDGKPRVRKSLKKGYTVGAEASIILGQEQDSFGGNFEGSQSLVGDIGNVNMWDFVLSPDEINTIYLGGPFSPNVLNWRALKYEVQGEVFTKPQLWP
B2: Complement factor H (Homo sapiens), P08603-2 (parent)
chain: MRLLAKIICLMLWAICVAEDCNELPPRRNTEILTGSWSDQTYPEGTQAIYKCRPGYRSLGNVIMVCRKGEWVALNPLRKCQKRPCGHPGDTPFGTFTLTGGNVFEYGVKAVYTCNEGYQLLGEINYRECDTDGWTNDIPICEVVKCLPVTAPENGKIVSSAMEPDREYHFGQAVRFVCNSGYKIEGDEEMHCSDDGFWSKEKPKCVEISCKSPDVINGSPISQKIIYKENERFQYKCNMGYEYSERGDAVCTESGWRPLPSCEEKSCDNPYIPNGDYSPLRIKHRTGDEITYQCRNGFYPATRGNTAKCTSTGWIPAPRCTLKPCDYPDIKHGGLYHENMRRPYFPVAVGKYYSYYCDEHFETPSGSYWDHIHCTQDGWSPAVPCLRKCYFPYLENGYNQNYGRKFVQGKSIDVACHPGYALPKAQTTVTCMENGWSPTPRCIRVSFTL
partner: B1 partner

Variants of: B1
Settings: with crp_human CRP

effect of a mutation on the interaction	Variant
decreasing interaction strength	Y402H

Variants of: B2
Settings: with crp_human CRP

effect of a mutation on the interaction	Variant
decreasing interaction strength	Y402H
